Reference: paper PMC3230378 (The EMBO Journal, 2011)

T1: mouse NGL3_(LRR–Ig) (mouse, UniProt P0C192 39-455)
T1 sequence (looked up): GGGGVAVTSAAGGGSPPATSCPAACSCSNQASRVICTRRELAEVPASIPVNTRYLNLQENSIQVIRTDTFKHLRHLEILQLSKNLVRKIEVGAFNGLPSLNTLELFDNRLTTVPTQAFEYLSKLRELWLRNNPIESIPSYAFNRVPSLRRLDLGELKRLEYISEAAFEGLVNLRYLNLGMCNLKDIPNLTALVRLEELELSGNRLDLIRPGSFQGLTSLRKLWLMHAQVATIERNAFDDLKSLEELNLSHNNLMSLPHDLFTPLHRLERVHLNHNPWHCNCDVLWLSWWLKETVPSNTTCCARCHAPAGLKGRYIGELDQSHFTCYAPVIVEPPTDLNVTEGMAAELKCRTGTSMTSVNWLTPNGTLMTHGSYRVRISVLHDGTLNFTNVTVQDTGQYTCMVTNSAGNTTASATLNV


Tests used:
Experiment in all cases: SPR
[1] = target: mouse NGL3_(LRR–Ig) (mouse) (UniProt P0C192)
[2] = target: NGL1-r1 mutant (human NGL1_(LRR–Ig) with the loop I binding region of NGL2) (human) (UniProt Q9HCJ2)
[3] = target: T1, mouse NGL3_(LRR–Ig)

| Molecule | Kd [1] [µM] | fold decrease of binding against WT NGL1 [2] [fold] | Kd [3] [µM] |
| --- | --- | --- | --- |
| human NetrinG1_(Lam–EGF1/4), wild type (domain or fragment) | > 100 | > 10 |  |
| human NetrinG2_(Lam–EGF1), wild type (domain or fragment, UniProt Q96CW9 18-345, looked up) DYDICKSWVTTDEGPTWEFYACQPKVMRLKDYVKVKVEPSGITCGDPPERFCSHENPYLCSNECDASNPDLAHPPRLMFDKEEEGLATYWQSITWSRYPSPLEANITLSWNKTVELTDDVVMTFEYGRPTVMVLEKSLDNGRTWQPYQFYAEDCMEAFGMSARRARDMSSSSAHRVLCTEEYSRWAGSKKEKHVRFEVRDRFAIFAGPDLRNMDNLYTRLESAKGLKEFFTLTDLRMRLLRPALGGTYVQRENLYKYFYAISNIEVIGRCKCNLHANLCSMREGSLQCECEHNTTGPDCGKCKKNFRTRSWRAGSYLPLPHGSPNACA |  |  | > 100 |
